Laboratory results reported in PMC3315321.

Target: T1, RIG-I (human, UniProt O95786 1-925)
T1 sequence: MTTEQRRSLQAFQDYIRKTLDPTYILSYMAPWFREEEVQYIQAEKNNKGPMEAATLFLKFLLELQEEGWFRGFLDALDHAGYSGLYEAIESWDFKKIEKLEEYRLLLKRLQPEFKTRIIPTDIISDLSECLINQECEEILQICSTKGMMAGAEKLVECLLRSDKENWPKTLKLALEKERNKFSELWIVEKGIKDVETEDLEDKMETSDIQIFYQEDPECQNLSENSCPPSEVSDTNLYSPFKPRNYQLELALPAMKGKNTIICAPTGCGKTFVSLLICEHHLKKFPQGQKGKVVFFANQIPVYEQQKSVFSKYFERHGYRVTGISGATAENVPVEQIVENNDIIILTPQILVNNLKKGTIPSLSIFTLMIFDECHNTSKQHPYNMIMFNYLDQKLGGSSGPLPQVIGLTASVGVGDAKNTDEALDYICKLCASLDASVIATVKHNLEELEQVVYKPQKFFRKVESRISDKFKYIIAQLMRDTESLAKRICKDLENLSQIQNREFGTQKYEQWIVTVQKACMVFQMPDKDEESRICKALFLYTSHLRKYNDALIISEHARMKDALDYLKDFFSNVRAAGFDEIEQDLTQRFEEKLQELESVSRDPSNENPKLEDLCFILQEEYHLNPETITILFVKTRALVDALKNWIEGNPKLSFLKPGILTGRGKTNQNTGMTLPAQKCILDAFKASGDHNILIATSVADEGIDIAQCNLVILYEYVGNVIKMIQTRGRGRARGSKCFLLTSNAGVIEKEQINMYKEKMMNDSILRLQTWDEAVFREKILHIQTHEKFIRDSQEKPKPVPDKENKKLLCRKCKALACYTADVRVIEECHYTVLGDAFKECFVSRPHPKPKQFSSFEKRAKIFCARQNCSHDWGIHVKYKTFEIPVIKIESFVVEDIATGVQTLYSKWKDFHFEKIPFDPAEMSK
Test: filter binding

B1: CL9 (AP-treated) (XNA)
RNA: GGGAGAGCGGAAGCGUGCUGGGCCACCAUCCGUAACUAGCUAAUACUUGUUAUCUUUUUAUUUUCAUAACCCAGAGGUCGAUGGAUCCCCCC
modifications: 2'-F U and 2'-F C (all)
Kd: 37.2 nM
